Test results from the RNAGym collection of RNA variant scans (doi:10.1073/pnas.2313332121).
Fewer inactive variants are shown than the library holds.

B1: TPR 5TU (parent)
chain: GGAUCUUCUCGAUCUAACAAAAAAGACAAAUCUGCCACAAAGCUUGAGAGCAUCUUCGGAUGCAGAGGCGGCAGCCUUCGGUGGCGCGAUAGCGCCAACGUUCUCAACUAUGACACGCAAAACGCGUGCUCCGUUGAAUGGAGUUUAUCAUG

Variants of: B1
Assay: polymerase ribozyme fitness, log enrichment relative to wild type (log ratio); higher = more active; in vitro selection for triplet polymerase activity
Procedure, shortened: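 Fitness measures genotype enrichment against wild-type enrichment on a logarithmic scale, with inverse-variance-weighted averaging of replicates. The logarithm is base 2, and genotypes were kept only with ≥10 input reads and ≥1 read per output in Illumina sequencing. The sequenced libraries came from one triplicate in vitro selection round, including frozen incubation at −7 °C, of PCR-built, transcribed mutant libraries of each subunit of a heterodimeric triplet polymerase ribozyme.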

Row | Variant | polymerase ribozyme fitness (log ratio)
1 | G42U C85A C99U C108G A110G | ≤ -4.2
2 | A12G C27A U31G C35G C85A A97C C99G C149A | ≤ -4.2
3 | G80A C85G | -1.38
4 | U53A C95U A138C | ≤ -4.2
5 | A12G C85U | 0.000103
6 | U6A A91C | ≤ -4.2
7 | A89U C99G A142U | -2.38
8 | A23C A29G G81A G84U A122G G126A U135A | ≤ -4.2
9 | A19C A52U | -1.43
10 | C85A G117C C118A A147U | -0.0649
11 | C95U U130G | -2.55
12 | A60G U90A C95A G117A | -3.93
13 | A12G A21C A23G C76G C116G G133A | ≤ -4.2
14 | U4C G58A G83A C85U | -1.97
15 | U56A G81A | -0.577
16 | A52G U53A A119U G126C | 0.147
17 | G50C G71U A97U | ≤ -4.2
18 | C35G C63A C93U | -4.16
19 | A30U G94C A121G | -3.43
20 | A41C G92U | -1.08
21 | A16G C27G G70C C87U A119U G133C G143A | ≤ -4.2

Row | Variant | polymerase ribozyme fitness (log ratio)
22 | A49C G71A | ≤ -4.2
23 | A49U G50A C85G C116G A121U | -1.16
24 | C14G A52G G141C | -3.34
25 | C87U A89U | -1.2
26 | U13G C27A C36U A40C A60G A138G | ≤ -4.2
27 | C8U A17G A21U C57U G80A C96G | ≤ -4.2
28 | A26C A41G A47C C69G G83A C93U G124U | ≤ -4.2
29 | C54A A115C | -1.87
30 | A30G C79U G124U U135A | ≤ -4.2
31 | C10G C75U | -3.87
32 | C5G A21C A29U U82A G94A G136C U151C | ≤ -4.2
33 | U6C C32U G84A G88C U111C A150U | ≤ -4.2
34 | C51G U56A G68A C93U A97G U104G G143A U146A | ≤ -4.2
35 | C14U C72U C76U C96A G112U | ≤ -4.2
36 | G62U C116U | 0.138
37 | G68U A150G | ≤ -4.2
38 | A91U U127G | ≤ -4.2
39 | C36A C85U A98G C125A | ≤ -4.2
40 | A17U A29U C93A G141U | ≤ -4.2
41 | C8U C95U | -2.24
42 | C85U U127C A137U | ≤ -4.2

Row | Variant | polymerase ribozyme fitness (log ratio)
43 | U6A U13A U61A C76A A91G | ≤ -4.2
44 | G11A C14A A40G C79A C93A G124A | ≤ -4.2
45 | C18U A52G G83C U146G | -2.39
46 | C35U A60G C79U G86C C93G G94A U104C | ≤ -4.2
47 | A47U C85U A150C | ≤ -4.2
48 | C57U C95A U109G | -0.696
49 | C8A C14G | -3.51
50 | C14G C57A | -1.52
51 | U44A U55A C69G G86U G141A | -4.2
52 | G42A G94U | ≤ -4.2
53 | A52U G80C G126A G133C | ≤ -4.2
54 | C10G A37C G50A C95U C99A G143C | ≤ -4.2
55 | G11C U15G A40C C87A U148G | ≤ -4.2
56 | A19G G68U C79G G84A G86A U135C G140U | ≤ -4.2
57 | C10A C32A C54U C116A G143A | ≤ -4.2
58 | A12U G25C C35U U77G G94U | ≤ -4.2
59 | C54G C95G A107U C108G G143A U145C | ≤ -4.2
60 | G94A A97U C125G | -2.14
61 | G83U U101A A115U G117U | ≤ -4.2
62 | U45A G50A U55G C87G G94C | ≤ -4.2
63 | A60G C116A | 1.26

Row | Variant | polymerase ribozyme fitness (log ratio)
64 | A23G A52U C118A A122U | ≤ -4.2
65 | U6G A26C G83U A89U | -3.85
66 | U82C A115G A138U | -4.19
67 | C10G C57G G92C A113C G133A | ≤ -4.2
68 | C38U C85U U146G | -0.571
69 | C38A G58A C96G C129G G143A | -2.67
70 | U55A A89C A119C | -0.892
71 | A29U U45A G94C C105A A113U U130G U135G | ≤ -4.2
72 | A16U A22C G59A C118A | -3.09
73 | C35U G117A U144G A147C | -0.649
74 | G92A C116U | -2.29
75 | G34U G94C | -3.96
76 | G50U C54G | -1.98
77 | G62U U145G | -0.51
78 | C27A U53A A119C | ≤ -4.2
79 | C93U G152U | -3.49
80 | C10U A40G G50U C79G C99U C108G G117A | ≤ -4.2
81 | A26C U61A A64U C85A A110C | ≤ -4.2
82 | A19G C87A C116A G143C U145G G152U | ≤ -4.2
83 | G83U C95U C118U U144A | -3.4
